Measured values: PMC9021188 (Cell Discovery, 2022)

What was measured:
[1] = target: RaTG13 RBD protein (Bat coronavirus RaTG13, UniProt A0ABF7PLN6); assay: ELISA; settings: both partners purified
[2] = target: SARS-CoV RBD protein (SARS-CoV, UniProt P59594); assay: cell-based or functional assay

B1: GW01 (antibody, V domains shown)
VH: EVQLVESGGGVVQPGGSLRLSCAASGFRFDDHAMHWVRQAPGKGLEWVSVISGDGGSTYYADSVKGRFSISRDDSKNSLYLQMNSLRTEDTALYYCAKDRSYGPPDVFNYEYGMDVWGQGTTVTVSS
VL: not shown
notes: also called mAb GW01; antibody GW01
**Q.** Does B1 bind [1]?
**A.** binds

**Q.** What about the “IC50 of neutralisation of pseudotyped SARS-CoV on Huh-7 cells” value [2] of the same binder?
**A.** 0.0193 µg/mL
